Results reported in the supplement of paper PMC9170038.

Tested on: MS2 coat protein
Assay: apparent KD of MS2 coat protein; designed switch direction (-1 OFF switch, 1 ON switch): -1; higher = weaker reporter binding
Procedure, shortened: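 SNAP-549-labelled MS2 coat protein was titrated, doubling from 0.7 or 1.5 nM to 3 µM, over designed RNA switches transcribed on Illumina chips by stalled E. coli RNA polymerase. Runs were done without input, with 200 uM small-molecule ligand, or with an oligonucleotide input. Apparent KD is the per-design median over clusters of curve-fitted normalised fluorescence.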

[1] = Eterna round: R95, input ligand: FMN 200 uM
[2] = Eterna round: R95, input ligand: microRNA oligo, concentration not stated
[3] = Eterna round: R95, input ligand: none
[4] = input ligand: microRNA oligo, concentration not stated

## CGAUGUCUUCGGACAUCGAACAUGAGGAUCACCCAUGUAAUGAGCAGAUCUUCAUGCAAGCUUUUUGCUCGUCUUAU [Sensor v3 - turn-off variant 1 - 44] (puzzle: Sensor v3, turn-off variant 1)
[1]
  apparent KD of MS2 coat protein: 215 nM
[2]
  apparent KD of MS2 coat protein: 11.6 nM
[3]
  apparent KD of MS2 coat protein: 213 nM

## CGAUGUGGAGUGAGGAUAUCGUGUUCGAAAGAACGUGAGAAGGCACAUGAGGAUCACCCAUGUGAUUCAUGUCG [Omei Ex4B A7] (Eterna round: R97, puzzle: Brourd's mod of Exclusion 4)
Input ligand: FMN 200 uM
  apparent KD of MS2 coat protein: 40.9 nM
Input ligand: none
  apparent KD of MS2 coat protein: 26.2 nM

## CGAUGUUAUGUCAGGAUAUGCGUUGCGAAAGCAAUGCAGAAGGGACAUGAGGAUCACCCAUGUCCUAACCAUCG [Omei A 5] (puzzle: Brourd's mod of Exclusion 4)
[2]
  apparent KD of MS2 coat protein: 12.7 nM

## CGCAAAAGAGGAUAUACAUGAGGAUCACCCAUGUUUUCUCUUCAUAACGGAAACUCGUGUAGAAGGCUUGUGCG [EX3 C.18] (Eterna round: R97, puzzle: Exclusion 3)
Input ligand: FMN 200 uM
  apparent KD of MS2 coat protein: 94.4 nM
Input ligand: none
  apparent KD of MS2 coat protein: 103 nM

## CGCAAACAUGAGGAUCACCCAUGUGAGGAUAUCAUGCUUCGUAGUAAACUACGAAGUGUGAGAAGGCACGUGCG [Omei Ex1 D4] (Eterna round: R97, puzzle: Exclusion 1)
Input ligand: FMN 200 uM
  apparent KD of MS2 coat protein: 42.9 nM
Input ligand: none
  apparent KD of MS2 coat protein: 29.9 nM

## CGCAACGCAAGAGGAUAUGUUGGACAUGAGGAUCACCCAUGUAAAAUUGGCGAAACGCAUAUCCAGUAGAAGGCUUCCGAGCAA [Eternabot solution 15] (Eterna round: R96, puzzle: Exclusion NG 2)
Input ligand: FMN 200 uM
  apparent KD of MS2 coat protein: 34.6 nM
[4]
  apparent KD of MS2 coat protein: 15.9 nM
Input ligand: none
  apparent KD of MS2 coat protein: 24.1 nM

## CGCAUACAUGAGGAUCACCCAUGUGAGGAUAUCAUGCUUCGUAGUAAACUACGAAGUGUGAGAAGGCACAUGCG [Omei Ex1 D2] (Eterna round: R97, puzzle: Exclusion 1)
Input ligand: FMN 200 uM
  apparent KD of MS2 coat protein: 112 nM
Input ligand: none
  apparent KD of MS2 coat protein: 62.6 nM

## CGCAUGUGAGGAUAUUAGUAGUAGUCAGAAUAGACUAUUACUGAGAAGGUACAUGAGGAUCACCCAUGUAUCCG [Eli x4 4.21] (Eterna round: R97, puzzle: Exclusion 4)
Input ligand: FMN 200 uM
  apparent KD of MS2 coat protein: 28.5 nM
Input ligand: none
  apparent KD of MS2 coat protein: 17.1 nM

## CGCCGAGUGUUAGGAUAUCACAAGCAUCAGCGGUGAGAAGGAACAUGAGGAUCACCCAUGUACUGUCCCAUAAGGACAGGUUUC [Geestiza] (Eterna round: R96, puzzle: Exclusion NG 1)
Input ligand: FMN 200 uM
  apparent KD of MS2 coat protein: 82.7 nM
[4]
  apparent KD of MS2 coat protein: 40.9 nM
Input ligand: none
  apparent KD of MS2 coat protein: 60.8 nM

## CGCGUAUGAGGAUAUGCAUAAAAGGGUGCACUGAGUCUGUGACAUGAGGAUCACCCAUGUAGAAGGCGUGCGCA [Diquzain] (puzzle: Exclusion 2)
[2]
  apparent KD of MS2 coat protein: 25.4 nM

## CGCUAGUCAGGAUAUACGAACAUGUCAAAAGACGUGAAGGGACAUGAGGAUCACCCAUGUAGAAGGGACUAGCG [Mat - Exclusion 2 - JL mod - D4] (Eterna round: R96, puzzle: Exclusion 2)
Input ligand: FMN 200 uM
  apparent KD of MS2 coat protein: 256 nM
[4]
  apparent KD of MS2 coat protein: 21.3 nM
Input ligand: none
  apparent KD of MS2 coat protein: 32.2 nM

## CGCUAGUCAGGAUAUACGAACAUGUCAAAAGACGUGAAGGGACAUGAGGAUCACCCAUGUAGAAGGGACUAGCG [salish99_ex2_r3_012] (puzzle: Exclusion 2)
[1]
  apparent KD of MS2 coat protein: 152 nM
[2]
  apparent KD of MS2 coat protein: 20 nM
[3]
  apparent KD of MS2 coat protein: 28.5 nM

## CGGAGCAGAGGGAGAUCCAACAUGAGGAUCACCCAUGUCUCACAAGCUUUUUGCUCGUCUUAUUGUACCUUGGUACU [JL ViennaUCT Edcesobi mod 8] (puzzle: Sensor v3, turn-off variant 1)
[1]
  apparent KD of MS2 coat protein: 155 nM
[2]
  apparent KD of MS2 coat protein: 9.75 nM
[3]
  apparent KD of MS2 coat protein: 54.6 nM

## CGGCAAUCCUAGGAUAUGCUAGACGAUAGUCUAGCAGAAGGAGGAACAUGAGGAUCACCCAUGUGUCCUAGCCG [Mat - Exclusion 6 - Eli Mod - D14] (Eterna round: R97, puzzle: Exclusion 6)
Input ligand: FMN 200 uM
  apparent KD of MS2 coat protein: 17.8 nM
Input ligand: none
  apparent KD of MS2 coat protein: 14.4 nM

## CGGCAUGUACAAGGAUAUCAGCACGUUUAGUGCUGAGAAGGUGUAACAUGAGGAUCACCCAUGUAGAUCAUUAACCGAUUAAUU [ENG1/9-A1] (Eterna round: R96, puzzle: Exclusion NG 1)
Input ligand: FMN 200 uM
  apparent KD of MS2 coat protein: 128 nM
[4]
  apparent KD of MS2 coat protein: 48.1 nM
Input ligand: none
  apparent KD of MS2 coat protein: 59 nM

## CGGCCUCGAGGAUAUGCUAUAAAAUGACCUUGGGUCAAAUGACUUGAGGAUCACCCAAGUAGAAGGCGAAAGCC [Bibice] (Eterna round: R97, puzzle: Exclusion 2)
Input ligand: FMN 200 uM
  apparent KD of MS2 coat protein: 102 nM
Input ligand: none
  apparent KD of MS2 coat protein: 93 nM

## CGGGAGGGACAAGCUGUUUGCACGUCUGGUAGUGAUGCAACAUGAGGAUCACCCAUGUAUAGGGUGUGAGAGGAUGG [JR_SV3TOV2_Sub050] (Eterna round: R96, puzzle: Sensor v3, turn-off variant 2)
Input ligand: FMN 200 uM
  apparent KD of MS2 coat protein: 1330 nM
[4]
  apparent KD of MS2 coat protein: 149 nM
Input ligand: none
  apparent KD of MS2 coat protein: 338 nM

## CGGGAGGGACAAGCUGUUUGCACGUCUGGUAGUGAUGCAACAUGAGGAUCACCCAUGUAUAGGGUGUGAGAGGAUGG [JR_SV3TOV2_Sub050] (puzzle: Sensor v3, turn-off variant 2)
[1]
  apparent KD of MS2 coat protein: 47.1 nM
[2]
  apparent KD of MS2 coat protein: 89.6 nM
[3]
  apparent KD of MS2 coat protein: 107 nM

## CGGGCCGGCCUUCCGGCCGGCCCGACAUGAGGAUCACCCAUGUAGGAUAUCCCGGCUGCCGGCCGGGAGAAGGGCGUGCGUCCC [-49.5, -48.5 kcal, 14% A] (Eterna round: R96, puzzle: Exclusion NG 3)
Input ligand: FMN 200 uM
  apparent KD of MS2 coat protein: 39.8 nM
[4]
  apparent KD of MS2 coat protein: 27.6 nM
Input ligand: none
  apparent KD of MS2 coat protein: 33.5 nM

## CGGUCCCAUGUGAGGAUAUCGGAGCGAAAAUACUGCGAGAAGGUACAUGAGGAUCACCCAUGUCUCCUAUUGCC [Entiedxebe] (puzzle: Brourd's mod of Exclusion 4)
[2]
  apparent KD of MS2 coat protein: 15.2 nM

## CGGUGCAGGCUGCGGUCCUACAUGAGGAUCACCCAUGUGGUCCGGUGGCGUGGGUCGCCGGACUUGGCUCGUCUUGU [salish99_S_TOV1_R5_015] (Eterna round: R97, puzzle: Sensor, turn-off variant 1)
Input ligand: FMN 200 uM
  apparent KD of MS2 coat protein: 56.8 nM
Input ligand: none
  apparent KD of MS2 coat protein: 75.6 nM

## CGGUGCUCGUGGAAACAUGAGGAUCACCCAUGUAGAGUUAGCGAGGAUAUCGGUAACACAUAUCACGAGAAGGCGCGAACCUGA [Ex NG3 #30] (Eterna round: R96, puzzle: Exclusion NG 3)
Input ligand: FMN 200 uM
  apparent KD of MS2 coat protein: 27.8 nM
[4]
  apparent KD of MS2 coat protein: 11.7 nM
Input ligand: none
  apparent KD of MS2 coat protein: 16.3 nM

## CGGUGCUCGUGGAAACAUGAGGAUCACCCAUGUUGAGUUAGCGAGGAUAUCGGUAACACAUGUCACGAGAAGGCGCGAACCAGA [Ex NG3 #32] (Eterna round: R96, puzzle: Exclusion NG 3)
Input ligand: FMN 200 uM
  apparent KD of MS2 coat protein: 18.7 nM
[4]
  apparent KD of MS2 coat protein: 9.96 nM
Input ligand: none
  apparent KD of MS2 coat protein: 14.9 nM

## CGGUGCUGAGGAUAUACAUGAGGAUCACCCAUGUGUUCCAGCUAGGUGACUGGCAGAUGUAGAAGGCGGUACUG [JL-ex3-3.38 Brourd mod] (puzzle: Exclusion 3)
[1]
  apparent KD of MS2 coat protein: 72.2 nM
[2]
  apparent KD of MS2 coat protein: 98.6 nM
[3]
  apparent KD of MS2 coat protein: 102 nM

## CGGUGCUGAGGAUAUACAUGAGGAUCACCCAUGUGUUCUUGCUAGAAAACUGGCAGAUGUAGAAGGCGGUACUG [Mat - Exclusion 3 - Mod of JL D98] (puzzle: Exclusion 3)
[1]
  apparent KD of MS2 coat protein: 285 nM
[2]
  apparent KD of MS2 coat protein: 35.4 nM
[3]
  apparent KD of MS2 coat protein: 36.6 nM

## CGGUGUAACAGAGGAUAUCAGCGCAACUGACGAUGAGAAGGCUGACAUGAGGAUCACCCAUGUGAUUUCUCAAUAUUAUACAUC [Prohibition 88 - Jieux - Exclusion NG 1] (Eterna round: R96, puzzle: Exclusion NG 1)
Input ligand: FMN 200 uM
  apparent KD of MS2 coat protein: 371 nM
[4]
  apparent KD of MS2 coat protein: 72.3 nM
Input ligand: none
  apparent KD of MS2 coat protein: 100 nM

## CGUAGAUUAGGAUAUUGCUCGCUGGACAUGAGGAUCACCCAUGUGCGUGUCGUGCGAAGUCAAGAAGGAGUGUGUG [Eternabot (L2) Solution 40] (Eterna round: R97, puzzle: Exclusion 5)
Input ligand: FMN 200 uM
  apparent KD of MS2 coat protein: 35.6 nM
Input ligand: none
  apparent KD of MS2 coat protein: 18 nM

## CGUAGCAAAGUGAGGAUAUCUAGAGCUUCGGCUCUAGAGAAGGCACAUGAGGAUCACCCAUGUGAUUAGCUACG [BmEx4/9-A1] (Eterna round: R97, puzzle: Brourd's mod of Exclusion 4)
Input ligand: FMN 200 uM
  apparent KD of MS2 coat protein: 152 nM
Input ligand: none
  apparent KD of MS2 coat protein: 29.8 nM

## CGUAGUCUUCGGACUACGAACAUGAGGAUCACCCAUGUAAUGAGCAGAUCUUCAUGCAAGCUUUUUGCUCGUCUUAU [Sensor v3 - turn-off variant 1 - 43] (puzzle: Sensor v3, turn-off variant 1)
[1]
  apparent KD of MS2 coat protein: 148 nM
[2]
  apparent KD of MS2 coat protein: 14.7 nM
[3]
  apparent KD of MS2 coat protein: 227 nM
